The results in this text go back to US20240132621A1.

The test concerns the target chitinase-3-like protein-1 (YKL-40) on human ovarian cancer cell CA5171 (human) (UniProt P36222). Kind of test: flow cytometry on human ovarian cancer cell CA5171.
Chain of UniProt P36222 (P36222 22-383): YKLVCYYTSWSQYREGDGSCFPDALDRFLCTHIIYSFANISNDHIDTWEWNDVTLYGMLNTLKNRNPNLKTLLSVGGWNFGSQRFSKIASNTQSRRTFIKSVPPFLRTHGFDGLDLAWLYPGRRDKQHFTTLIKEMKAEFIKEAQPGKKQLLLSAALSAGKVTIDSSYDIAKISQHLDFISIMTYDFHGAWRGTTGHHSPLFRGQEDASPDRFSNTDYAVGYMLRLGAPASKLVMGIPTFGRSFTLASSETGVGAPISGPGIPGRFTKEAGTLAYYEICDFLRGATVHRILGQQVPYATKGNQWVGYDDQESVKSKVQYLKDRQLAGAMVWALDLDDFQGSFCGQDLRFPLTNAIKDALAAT

In turn, control group antibody (IgG) came in with a binding ability (percent, flow cytometry) of 28.7%.
